Test results taken from US20030212001A1 (THERATECHNOLOGIES, published 2003).

B1: peptide 1402 (peptide)
peptide: HIICSPLR
B2: peptide 1405 (peptide)
peptide: IFDSTECW

Target: R-14 protein (as present in the eye of newborn pigs)
Assay: cell-based or functional assay

Binder	IC50, dose response on basal intraocular pressure (IOP) of piglet [nM]
B1	86.4
B2	342
